Molecular target: T1, peptide substrate KSEVNLDAEFRK derived from the sequence of Swedish amyloid precursor protein
T1 chain: KSEVNLDAEFRK

B1: β-secretase refolded from E. coli overexpression (protein)
chain: TQHGIRLPLRSGLGGAPLGLRLPRETDEEPEEPGRRGSFVEMVDNLRGKSGQGYYVEMTVGSPPQTLNILVDTGSSNFAVGAAPHPFLHRYYQRQLSSTYRDLRKGVYVPYTQGKWEGELGTDLVSIPHGPNVTVRANIAAITESDKFFINGSNWEGILGLAYAEIARPDDSLEPFFDSLVKQTHVPNLFSLQLCGAGFPLNQSEVLASVGGSMIIGGIDHSLYTGSLWYTPIRREWYYEVIIVRVEINGQDLKMDCKEYNYDKSIVDSGTTNLRLPKKVFEAAVKSIKAASSTEKFPDGFWLGEQLVCWQAGTTPWNIFPVISLYLMGEVTNQSFRITILPQQYLRPVEDVATSQDDCYKFAISQSSTGTVMGAVIMEGFYVVFDRARKRIGFAVSACHVHDEFRTAAVEGPFVTLDMEDCGYNIPQTDEST
  specificity constant (Kcat/Km): 1800 ± 100 M⁻¹ s⁻¹
